B1: BCL2L13 (parent)
chain: YIIQQGGWGTVFSLESEEEEYPGI
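Further: lentivirally expressed fusions sorted by FACS into six bins by GFP to DsRed ratio, PSI derived from sequencing read proportions per bin multiplied by bin number.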

Variants of B1 are the subject of this data set. Put plainly: protein stability index of a GFP-peptide fusion (GPS, HEK-293T) (PSI 1-6); higher = more stable. The conditions noted are these: c terminus: a fixed tail appended.
As to YIIQQGGWGTVFSLESEEEEYIGI [P22I], the protein stability index came to 3.56.

On to YIIQQGGWGTVFSLESEEEEYEGI [P22E], for which the protein stability index is 2.22. In the case of YIIQQGGWGTVFSLESEEEEYTGI [P22T] it was 2.02.

As for YIIQQGGWGTVFSLESEEEEYAGI [P22A], the protein stability index turned out to be 2.

For YIIQQGGWGTVFSLESEEEEYVGI [P22V], the protein stability index was 1.37. YIIQQGGWGTVFSLESEEEEYYGI [P22Y]: the protein stability index worked out at 1.38. On to YIIQQGGWGTVFSLESEEEEMPGI [Y21M], for which the protein stability index was 2.26. Next, YIIQQGGWGTVFSLESEEEELPGI [Y21L]: 2.11.

For YIIQQGGWGTVFSLESEEEEEPGI [Y21E], the protein stability index was 1.64. In the case of YIIQQGGWGTVFSLESEEEERPGI [Y21R] it was 1.75. In the case of YIIQQGGWGTVFSLESEEEEIPGI [Y21I] it was 1.59; in that of YIIQQGGWGTVFSLESEEEEGPGI [Y21G], 2.02; in that of YIIQQGGWGTVFSLESEEEESPGI [Y21S], 1.14.

With YIIQQGGWGTVFSLESEEEETPGI [Y21T], the protein stability index was determined as 1.21. In the case of YIIQQGGWGTVFSLESEEEEQPGI [Y21Q] it was 2.33; in that of YIIQQGGWGTVFSLESEEEENPGI [Y21N], 1.74; in that of YIIQQGGWGTVFSLESEEEEHPGI [Y21H], 2.53.

Consider YIIQQGGWGTVFSLESEEEEDPGI [Y21D], for which the protein stability index came to 2.22. Turning to YIIQQGGWGTVFSLESEEEEYPMI [G23M], the protein stability index was found to be 2.57.

With YIIQQGGWGTVFSLESEEEEYPQI [G23Q], the protein stability index was found to be 1.84.

In the case of YIIQQGGWGTVFSLESEEEEYPEI [G23E], the protein stability index was found to be 2.43.

YIIQQGGWGTVFSLESEEEEYPWI [G23W]: the protein stability index stood at 1.93. As for YIIQQGGWGTVFSLESEEEEYPPI [G23P], the protein stability index was 1.97. In the case of YIIQQGGWGTVFSLESEEEEYPHI [G23H] it was 1; in that of YIIQQGGWGTVFSLESEEEEYPVI [G23V], 1.85. On to YIIQQGGWGTVFSLESEEEEYPKI [G23K], for which the protein stability index is 2.61.

As for YIIQQGGWGTVFSLESEEEEYPYI [G23Y], the protein stability index is 2.18. Next, YIIQQGGWGTVFSLESEEEEYPII [G23I]: 1.76; YIIQQGGWGTVFSLESEEEEYPTI [G23T]: 2.58; YIIQQGGWGTVFSLESEEEEYPFI [G23F]: 1.26.

For the variant YIIQQGGWGTVFSLESEEEEYPAI [G23A], the protein stability index came to 1.21.

Take YIIQQGGWGTVFSLESEEEEYPRI [G23R]: the protein stability index amounted to 1.28.

Consider YIIQQGGWGTVFSLESEEEEYPDI [G23D], for which the protein stability index was 2.7. Next, YIIQQGGWGTVFSLESEEEEYPNI [G23N]: 1.16. On to YIIQQGGWGTVFSLESEEEEYPLI [G23L], for which the protein stability index stood at 2.01.

Take YIIQQGGWGTVFSLEFEEEEYPGI [S16F]: the protein stability index was 2.94.

For YIIQQGGWGTVFSLEGEEEEYPGI [S16G], the protein stability index turned out to be 2.38. With YIIQQGGWGTVFSLEMEEEEYPGI [S16M], the protein stability index was determined as 2.68. Regarding YIIQQGGWGTVFSLEKEEEEYPGI [S16K], the protein stability index is 2.69. Next, YIIQQGGWGTVFSLENEEEEYPGI [S16N]: 1.83. Next, YIIQQGGWGTVFSLEIEEEEYPGI [S16I]: 4.26; YIIQQGGWGTVFSLETEEEEYPGI [S16T]: 2.25. In the case of YIIQQGGWGTVFSLEHEEEEYPGI [S16H] it was 2.01; in that of YIIQQGGWGTVFSLEDEEEEYPGI [S16D], 1.76; in that of YIIQQGGWGTVFSLEEEEEEYPGI [S16E], 1.59. In the case of YIIQQGGWGTVFSLEYEEEEYPGI [S16Y], the protein stability index is 2.61. Next, YIIQQGGWGTVFSLEVEEEEYPGI [S16V]: 1.65; YIIQQGGWGTVFSLESEEEIYPGI [E20I]: 3.47. As to YIIQQGGWGTVFSLESEEEKYPGI [E20K], the protein stability index was determined as 2.15. As to YIIQQGGWGTVFSLESEEECYPGI [E20C], the protein stability index was determined as 1.91.

Turning to YIIQQGGWGTVFSLESEEESYPGI [E20S], the protein stability index was 1.82. In the case of YIIQQGGWGTVFSLESEEENYPGI [E20N] it was 2.17; in that of YIIQQGGWGTVFSLESEEEDYPGI [E20D], 1.71. Take YIIQQGGWGTVFSLESEEEAYPGI [E20A]: the protein stability index is 1.13. Regarding YIIQQGGWGTVFSLESEEEGYPGI [E20G], the protein stability index amounted to 1.51.

As to YIIQQGGWGTVFSLESEEERYPGI [E20R], the protein stability index was 2.98. Regarding YIIQQGGWGTVFSLESEEEPYPGI [E20P], the protein stability index turned out to be 2.87.

For the variant YIIQQGGWGTVFSLESEEEMYPGI [E20M], the protein stability index came to 1.31.

Consider YIIQQGGWGTVFSLESEEEHYPGI [E20H], for which the protein stability index turned out to be 2.46. In the case of YIIQQGGWGTVFSLESENEEYPGI [E18N] it was 2.86. As to YIIQQGGWGTVFSLESESEEYPGI [E18S], the protein stability index was 2.56. Next, YIIQQGGWGTVFSLESEDEEYPGI [E18D]: 1.96; YIIQQGGWGTVFSLESEHEEYPGI [E18H]: 1.85. Next, YIIQQGGWGTVFSLESEPEEYPGI [E18P]: 1.53; YIIQQGGWGTVFSLESEFEEYPGI [E18F]: 2.56; YIIQQGGWGTVFSLESELEEYPGI [E18L]: 1.92. In the case of YIIQQGGWGTVFSLESETEEYPGI [E18T] it was 1.99. YIIQQGGWGTVFSLESEQEEYPGI [E18Q]: the protein stability index was 2.13. As for YIIQQGGWGTVFSLESEEEEYPGD [I24D], the protein stability index amounted to 1.54. With YIIQQGGWGTVFSLESEEEEYPGF [I24F], the protein stability index was 2.58. With YIIQQGGWGTVFSLESEEEEYPGV [I24V], the protein stability index was found to be 1.78. In the case of YIIQQGGWGTVFSLESEEEEYPGL [I24L], the protein stability index is 1.82. Next, YIIQQGGWGTVFSLESEEEEYPGN [I24N]: 2.39; YIIQQGGWGTVFSLESEEEEYPGM [I24M]: 1.53.

In the case of YIIQQGGWGTVFSLESEEEEYPGS [I24S], the protein stability index amounted to 1.23. In the case of YIIQQGGWGTVFSLESEEEEYPGC [I24C] it was 1.34; in that of YIIQQGGWGTVFSLESEEEEYPGT [I24T], 1.1. Next, YIIQQGGWGTVFSLESEEEEYPGH [I24H]: 1.63; YIIQQGGWGTVFSLESEEEEYPGY [I24Y]: 1.22; YIIQQGGWGTVFSLESEEEEYPGA [I24A]: 1.39.

For YIIQQGGWGTVFSLESEEEEYPGG [I24G], the protein stability index was 2.85. Consider YIIQQGGWGTVFSLESEEEEYPGK [I24K], for which the protein stability index stood at 1.75.

Take YIIQQGGWGTVFSLESEEEEYPGP [I24P]: the protein stability index was determined as 2.14. Turning to YIIQQGGWGTVFSLESEEREYPGI [E19R], the protein stability index was determined as 1.93. Next, YIIQQGGWGTVFSLESEESEYPGI [E19S]: 2.39; YIIQQGGWGTVFSLESEEYEYPGI [E19Y]: 2.41; YIIQQGGWGTVFSLESEETEYPGI [E19T]: 2.34. In the case of YIIQQGGWGTVFSLESEELEYPGI [E19L] it was 2.41. Next, YIIQQGGWGTVFSLESEECEYPGI [E19C]: 3.36; YIIQQGGWGTVFSLESEEQEYPGI [E19Q]: 3.34; YIIQQGGWGTVFSLESEEPEYPGI [E19P]: 1.82.

Take YIIQQGGWGTVFSLESEEWEYPGI [E19W]: the protein stability index was found to be 2.31. On to YIIQQGGWGTVFSLESEEDEYPGI [E19D], for which the protein stability index worked out at 1.19. Next, YIIQQGGWGTVFSLESEEHEYPGI [E19H]: 2.29.

The values are drawn from the supplement of paper PMC10567573.
